Results on one molecule are retold here after article PMC8629192 (bioRxiv, 2021).

For this experiment, the target named is SARS-CoV-2 spike RBD-Fc recombinant protein (used for ELISA) (SARS-CoV-2, UniProt P0DTC2). As to the kind of experiment: ELISA. In general terms: ELISA stands for enzyme-linked immunosorbent assay.

B1: LRRC15-His (natural protein)
chain: YHGCPSECTCSRASQVECTGARIVAVPTPLPWNAMSLQILNTHITELNESPFLNISALIALRIEKNELSRITPGAFRNLGSLRYLSLANNKLQVLPIGLFQGLDSLESLLLSSNQLLQIQPAHFSQCSNLKELQLHGNHLEYIPDGAFDHLVGLTKLNLGKNSLTHISPRVFQHLGNLQVLRLYENRLTDIPMGTFDGLVNLQELALQQNQIGLLSPGLFHNNHNLQRLYLSNNHISQLPPSVFMQLPQLNRLTLFGNSLKELSPGIFGPMPNLRELWLYDNHISSLPDNVFSNLRQLQVLILSRNQISFISPGAFNGLTELRELSLHTNALQDLDGNVFRMLANLQNISLQNNRLRQLPGNIFANVNGLMAIQLQNNQLENLPLGIFDHLGKLCELRLYDNPWRCDSDILPLRNWLLLNQPRLGTDTVPVCFSPANVRGQSLIIINVNVAVPSVHVPEVPSYPETPWYPDTPSYPDTTSVSSTTELTSPVEDYTDLTTIQVTDDRSVWGMTQAQSG
With B1, the binding result is given as “binds”.
